Results published in patent publication CN118076384A (SPARKS BIOSCIENCE INC, dated 2024).
Residue numbers refer to the chain shown, from its start.

B1: 抗PDL1单克隆抗体12A4bad (antibody, V domains shown)
VH: QVQLVQSGAEVKKPGSSVKVSCKTSGDTFSTYAISWVRQAPGQGLEWMGGIIPLFGKAHYAQKFQGRVTITADESTSTAYMELSSLRSEDTAVYFCARKFHFVRGSPFGMDVWGQGTTVTVSS
VL: EIVLTQSPATLSLSPGERATLSCRASQSVSSYLAWYQQKPGQAPRLLIYDASNRAPGIPARFSGSGSGTDFTLTISSLEPEDFAVYYCQQRSNWPTFGQGTKVEIK
B2: 12A4bad (Fab displayed on phage) (Fab, V domains shown)
VH: B1 VH
VL: B1 VL
B3: 12A4bd (Fab displayed on phage) (Fab, V domains shown)
VH: B1 VH
VL: not shown
B4: 12A4a (Fab displayed on phage) (Fab, V domains shown)
VH: B1 VH with L54I, R104S
VL: B1 VL

Columns and labels:
[1] = biological target: PDL1 on PDL1 aAPC/CHOK1 cells (UniProt Q9NZQ7 19-290, limits assumed); test: cell-based or functional assay
[2] = biological target: T1, PDL1 on MDA MB-231 human breast cancer cells (human, UniProt Q9NZQ7 19-290); test: flow cytometry on MDA MB-231 cells, anti-human IgG Fc secondary antibody
T1 construct: whole, on cells; also called 表达PD-L1的肿瘤细胞

[3] = biological target: T2, 人PD-L1 (recombinant protein of the phage ELISA) (human, UniProt Q9NZQ7 19-239, limits assumed); test: competitive phage ELISA, ratio to parental clone 12A4
T2 construct: also called CD274; B7同源物1

[4] = biological target: T2, 人PD-L1 (recombinant protein of the …); test: competitive phage ELISA, Fab on phage, soluble PD-L1 against coated PD-L1

Row | Binder | EC50 of luminescence in the PDL1/PD1 blockade bioassay [1] [nM] | Kd [2] [nM] | 相对于12A4亲本克隆的改善 [3] [fold] | Kd [4] [nM]
1 | B1 | 0.344 | 0.0778 |  | 
2 | B2 |  |  | 7.5 | 1.5
3 | B3 |  |  | 6.3 | 1.8
4 | B4 |  |  | 1.3 | 8.3
